{"source": "paper PMC9888711", "about": "“Pneumococcal capsule expression is controlled through a conserved, distal cis-regulatory element during infection” (PLOS Pathogens, 2023)", "molecules": {"B1": {"name": "CpsR (SPD_0064), recombinant (natural protein)", "chain": "MEKENRGKNMAIPKYQYIKDELKNKIISGQFSSGDKFYTEAELISMYDVSSITVVRALNDLAKDGYIVRQQGKGTFVSRARKHKLVEFSDIELFNAKDDKVTVLSIERGNKLVYLEKLGLRGDQFYYKIERIRESNGVVYIYHTSYIPEQYINANYPNLEYYSSIYNRFKLDYHIHMNDEHFEEINEIVFPTPEHAASVLGVDEQFPTVLQTKITKLESTGQVLEYSETYKRSDYYKIKFISCDRDH", "notes": "CpsR (also called AgaR), transcription factor of Streptococcus pneumoniae D39, locus SPD_0064; 65.72 kDa as a dimer; cpsR amplified from D39 genomic DNA into pE-SUMO; also called AgaR; source: E. coli T7 Express lysY/Iq, purified (Ni-NTA, Ulp1 cleavage, SEC)"}, "B2": {"name": "21-CE (dsDNA)", "DNA 1": "GTGTACTATATTATATTGAAA", "DNA 2": "TTTCAATATAATATAGTACAC"}, "B3": {"name": "21-CE SpxR-only (dsDNA)", "DNA 1": "GTGTACTAGAGTAGTTTGAAA", "DNA 2": "TTTCAAACTACTCTAGTACAC"}, "B4": {"name": "21-CE CpsR-only (dsDNA)", "DNA 1": "GTGTGAGATATTATATTGAAA", "DNA 2": "TTTCAATATAATATCTCACAC"}, "B5": {"name": "21-CE Neither (dsDNA)", "DNA 1": "GTGTGAGAGAGTAGTTTGAAA", "DNA 2": "TTTCAAACTACTCTCTCACAC"}, "B6": {"name": "37-CE 5' (10 bp) (dsDNA)", "DNA 1": "TGTGTACTAT", "DNA 2": "ATAGTACACA"}, "B7": {"name": "37-CE spacer (17 bp) (dsDNA)", "DNA 1": "ATTATATTGAAACTAGA", "DNA 2": "TCTAGTTTCAATATAAT"}, "B8": {"name": "37-CE (dsDNA)", "DNA 1": "TGTGTACTATATTATATTGAAACTAGAATAGTACACA", "DNA 2": "TGTGTACTATTCTAGTTTCAATATAATATAGTACACA"}, "B9": {"name": "37-CE 5'+10 (dsDNA)", "DNA 1": "TGTGTACTATATTATATTGA", "DNA 2": "TCAATATAATATAGTACACA"}, "B10": {"name": "37-CE 3'+10 (dsDNA)", "DNA 1": "TGAAACTAGAATAGTACACA", "DNA 2": "TGTGTACTATTCTAGTTTCA"}}, "key": {"[1]": {"target": "SpxR (SPD_0969), full-length recombinant (Streptococcus pneumoniae D39)", "assay": "negative stain electron microscopy; SpxR with 37-CE DNA in high salt (50 mM Tris pH 7.0, 500 mM NaCl, 1 mM TCEP); 3D reconstruction, C2 symmetry, 20.9 A"}, "[2]": {"target": "SpxR (SPD_0969), full-length recombinant (Streptococcus pneumoniae D39)", "assay": "SEC-MALS; Superdex 200 Increase 10/300 GL, 50 mM Tris-Cl pH 7.0, 500 mM NaCl, 1 mM TCEP, 70 uM, 25 C; no DNA"}, "[3]": {"target": "SpxR (SPD_0969), full-length recombinant (Streptococcus pneumoniae D39)", "assay": "negative stain electron microscopy; SpxR with 37-CE DNA in low salt (final 50 mM NaCl, HEPES pH 7.5, 5 mM MgCl2, 1 mM CaCl2); 3D reconstruction, C3 symmetry, 21.5 A"}, "[4]": {"target": "SpxR (SPD_0969), full-length recombinant (Streptococcus pneumoniae D39)", "assay": "SEC; Superose 6 Increase 10/300 GL, 50 mM Tris-Cl pH 7.0, 500 mM NaCl, 1 mM TCEP; 300 uL at 70 uM; calibrated with molecular weight standards"}, "[5]": {"target": "the molecule itself", "assay": "SEC; Superose 6 Increase 10/300 GL, 50 mM Tris-Cl pH 7.0, 500 mM NaCl, 1 mM TCEP; 300 uL at 70 uM; calibrated with molecular weight standards"}, "SpxR [6]": {"target": "T1, SpxR (Streptococcus pneumoniae D39, UniProt A0A0H2ZR90 1-425)", "assay": "fluorescence polarization; 50 mM NaCl; EMSA: 20 mM HEPES pH 7.2, 50 mM NaCl, 5 mM MgCl2, 1 mM CaCl2, 0.1 mM EDTA, 12% glycerol, 10 mM DTT, 0.5 uM DNA, 400 ng poly(dI-dC); FP: same salts, 2% glycerol, 10 nM DNA (high salt 500 mM NaCl; Fig 5 legend says Tris pH 7.0); temperature not stated", "conditions": "protein: recombinant; tags: His6-SUMO removed by Ulp1; chain copies: 3; label: 6-FAM forward; blunt"}, "CpsR [7]": {"target": "T2, CpsR (Streptococcus pneumoniae D39, UniProt A0A0H2ZMA3 1-247)", "assay": "EMSA; EMSA: 20 mM HEPES pH 7.2, 50 mM NaCl, 5 mM MgCl2, 1 mM CaCl2, 0.1 mM EDTA, 12% glycerol, 10 mM DTT, 0.5 uM DNA, 400 ng poly(dI-dC); FP: same salts, 2% glycerol, 10 nM DNA (high salt 500 mM NaCl; Fig 5 legend says Tris pH 7.0); temperature not stated", "conditions": "protein: recombinant; tags: His6-SUMO removed by Ulp1; chain copies: 2; label: 6-FAM forward; blunt"}, "SpxRDBD [8]": {"target": "T3, SpxRDBD (Streptococcus pneumoniae D39, UniProt A0A0H2ZR90 1-63)", "assay": "EMSA; EMSA: 20 mM HEPES pH 7.2, 50 mM NaCl, 5 mM MgCl2, 1 mM CaCl2, 0.1 mM EDTA, 12% glycerol, 10 mM DTT, 0.5 uM DNA, 400 ng poly(dI-dC); FP: same salts, 2% glycerol, 10 nM DNA (high salt 500 mM NaCl; Fig 5 legend says Tris pH 7.0); temperature not stated", "conditions": "protein: recombinant; tags: His6-SUMO removed by Ulp1; label: 6-FAM forward; blunt"}, "CpsR [9]": {"target": "T2, CpsR", "assay": "EMSA; shift begins at 625 nM protein; competed by unlabeled 37-CE; EMSA: 20 mM HEPES pH 7.2, 50 mM NaCl, 5 mM MgCl2, 1 mM CaCl2, 0.1 mM EDTA, 12% glycerol, 10 mM DTT, 0.5 uM DNA, 400 ng poly(dI-dC); FP: same salts, 2% glycerol, 10 nM DNA (high salt 500 mM NaCl; Fig 5 legend says Tris pH 7.0); temperature not stated", "conditions": "protein: recombinant; tags: His6-SUMO removed by Ulp1; chain copies: 2; label: 6-FAM on forward strand 5' (EMSA, FP); blunt"}, "SpxR [10]": {"target": "T1, SpxR", "assay": "EMSA; shift begins at 312 nM protein; competed by unlabeled 37-CE; EMSA: 20 mM HEPES pH 7.2, 50 mM NaCl, 5 mM MgCl2, 1 mM CaCl2, 0.1 mM EDTA, 12% glycerol, 10 mM DTT, 0.5 uM DNA, 400 ng poly(dI-dC); FP: same salts, 2% glycerol, 10 nM DNA (high salt 500 mM NaCl; Fig 5 legend says Tris pH 7.0); temperature not stated", "conditions": "protein: recombinant; tags: His6-SUMO removed by Ulp1; chain copies: 3; label: 6-FAM on forward strand 5' (EMSA, FP); blunt"}, "SpxRDBD [11]": {"target": "T3, SpxRDBD", "assay": "EMSA; strongest of the extended truncations; EMSA: 20 mM HEPES pH 7.2, 50 mM NaCl, 5 mM MgCl2, 1 mM CaCl2, 0.1 mM EDTA, 12% glycerol, 10 mM DTT, 0.5 uM DNA, 400 ng poly(dI-dC); FP: same salts, 2% glycerol, 10 nM DNA (high salt 500 mM NaCl; Fig 5 legend says Tris pH 7.0); temperature not stated", "conditions": "protein: recombinant; tags: His6-SUMO removed by Ulp1; label: 6-FAM forward; blunt"}, "SpxRDBD [12]": {"target": "T3, SpxRDBD", "assay": "EMSA; second to 5'+10; EMSA: 20 mM HEPES pH 7.2, 50 mM NaCl, 5 mM MgCl2, 1 mM CaCl2, 0.1 mM EDTA, 12% glycerol, 10 mM DTT, 0.5 uM DNA, 400 ng poly(dI-dC); FP: same salts, 2% glycerol, 10 nM DNA (high salt 500 mM NaCl; Fig 5 legend says Tris pH 7.0); temperature not stated", "conditions": "protein: recombinant; tags: His6-SUMO removed by Ulp1; label: 6-FAM forward; blunt"}}, "note": "Values joined by “and” are separate entries in the source; they are usually repeats but may differ in a detail not shown here. Equal entries are not always repeated.", "data": [{"molecule": "SpxR (SPD_0969), full-length recombinant (natural protein)", "values": [{"measurement": "stoichiometry N", "setting": "[1]", "result": 4}, {"measurement": "stoichiometry N", "setting": "[2]", "result": "4 and 8"}, {"measurement": "stoichiometry N", "setting": "[3]", "result": 3}, {"measurement": "stoichiometry N", "setting": "[4]", "result": 4}]}, {"molecule": "B1", "values": [{"measurement": "stoichiometry N", "setting": "[5]", "result": 2}]}, {"molecule": "B2", "values": [{"measurement": "Kd", "setting": "SpxR [6]", "result": 71, "unit": "nM"}]}, {"molecule": "B3", "values": [{"measurement": "Kd", "setting": "SpxR [6]", "result": 56, "unit": "nM"}, {"measurement": "binding result", "setting": "CpsR [7]", "result": "no binding"}]}, {"molecule": "B4", "values": [{"measurement": "Kd", "setting": "SpxR [6]", "result": 104, "unit": "nM"}, {"measurement": "binding result", "setting": "SpxRDBD [8]", "result": "no binding"}]}, {"molecule": "B5", "values": [{"measurement": "binding result", "setting": "CpsR [7]", "result": "no binding"}, {"measurement": "binding result", "setting": "SpxRDBD [8]", "result": "no binding"}]}, {"molecule": "B6", "values": [{"measurement": "binding result", "setting": "CpsR [7]", "result": "no binding"}, {"measurement": "binding result", "setting": "SpxRDBD [8]", "result": "no binding"}]}, {"molecule": "B7", "values": [{"measurement": "binding result", "setting": "CpsR [7]", "result": "no binding"}, {"measurement": "binding result", "setting": "SpxRDBD [8]", "result": "no binding"}]}, {"molecule": "B8", "values": [{"measurement": "binding result", "setting": "CpsR [9]", "result": "binds"}, {"measurement": "binding result", "setting": "SpxR [10]", "result": "binds"}]}, {"molecule": "B9", "values": [{"measurement": "binding result", "setting": "CpsR [7]", "result": "binds"}, {"measurement": "binding result", "setting": "SpxRDBD [11]", "result": "binds"}]}, {"molecule": "B10", "values": [{"measurement": "binding result", "setting": "CpsR [7]", "result": "no binding"}, {"measurement": "binding result", "setting": "SpxRDBD [12]", "result": "binds"}]}]}
